The record followed here is patent US20030086940A1.

One experiment addresses porcine CD86 (porcine). In words: cell-based or functional assay.
The target in experiment [1] is human CTLA4-human CD59 chimeric molecule with a human CD59 leader sequence and an (AS)3 linker (human). In words: flow cytometry, PAEC Control-hCCh (pig #51, high hCTLA4-hCD59); mean ± SE, n=4. (A flow cytometer gives signals particle by particle.)
The target is the same in experiment [2]. In words: flow cytometry, PAEC Control-hCCm (pig #51, medium hCTLA4-hCD59); mean ± SE, n=4.
For experiment [3] the target is unchanged. In words: flow cytometry, PAEC HT 49-hCCm (medium hCTLA4-hCD59); mean ± SE, n=4.
The target is the same in experiment [4]. The experiment in a line: flow cytometry, PAEC HT 48-hCCl (low hCTLA4-hCD59); mean ± SE, n=4.
For another experiment, the target named is human CD28 (human) (UniProt P10747). In words: cell-based or functional assay.
Sequence of UniProt P10747 (P10747 19-220): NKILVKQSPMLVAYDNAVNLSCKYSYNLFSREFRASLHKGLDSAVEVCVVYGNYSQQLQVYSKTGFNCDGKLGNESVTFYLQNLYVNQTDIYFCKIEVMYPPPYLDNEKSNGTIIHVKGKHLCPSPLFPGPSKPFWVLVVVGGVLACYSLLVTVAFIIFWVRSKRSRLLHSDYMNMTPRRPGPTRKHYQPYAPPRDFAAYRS

Sequence of human CTLA4-human CD59 chimeric molecule with a human CD59 leader sequence and an (AS)3 linker (human) (chain, as listed by the source mutant limits assumed): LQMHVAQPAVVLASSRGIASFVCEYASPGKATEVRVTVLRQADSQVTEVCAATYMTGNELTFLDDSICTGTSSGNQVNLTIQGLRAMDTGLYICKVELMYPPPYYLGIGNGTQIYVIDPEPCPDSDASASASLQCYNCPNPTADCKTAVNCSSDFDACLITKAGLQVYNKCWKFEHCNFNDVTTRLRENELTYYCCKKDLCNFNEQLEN

Turning to “human CTLA4-human CD59 chimeric molecule with a human CD59 leader sequence and an (AS)3 linker”, in the experiment with porcine CD86 (porcine), the IL-2 secreted from Jurkat cells co-cultured with PI-PLC treated hCTLA4-hCD59 PAEC was found to be 570 pg/mL and the IL-2 secreted from Jurkat cells co-cultured with hCTLA4-hCD59 PAEC (fold decrease) was 5.
In the case of “mouse monoclonal antibody BNI3 (Immunotech), specific for hCTLA4”, the mean fluorescence intensity in experiment [1] is 112 MFI; in experiment [2] it was 101 MFI; in experiment [3] it was 30.9 MFI; in experiment [4], 10.2 MFI.
Substance porcine CD86 (ligand) displayed an IL-2 secreted from Jurkat cells co-cultured with vector control PAEC and PHA (ELISA) with human CD28 (human) of 400 pg/mL.
